Measurements published in patent US20250019452A1 (Sanofi, published 2025).

Key:
[1] = molecular target: T1, IL-1R3 (human, UniProt Q9NPH3 21-570); test: cell-based or functional assay
T1 sequence (looked up): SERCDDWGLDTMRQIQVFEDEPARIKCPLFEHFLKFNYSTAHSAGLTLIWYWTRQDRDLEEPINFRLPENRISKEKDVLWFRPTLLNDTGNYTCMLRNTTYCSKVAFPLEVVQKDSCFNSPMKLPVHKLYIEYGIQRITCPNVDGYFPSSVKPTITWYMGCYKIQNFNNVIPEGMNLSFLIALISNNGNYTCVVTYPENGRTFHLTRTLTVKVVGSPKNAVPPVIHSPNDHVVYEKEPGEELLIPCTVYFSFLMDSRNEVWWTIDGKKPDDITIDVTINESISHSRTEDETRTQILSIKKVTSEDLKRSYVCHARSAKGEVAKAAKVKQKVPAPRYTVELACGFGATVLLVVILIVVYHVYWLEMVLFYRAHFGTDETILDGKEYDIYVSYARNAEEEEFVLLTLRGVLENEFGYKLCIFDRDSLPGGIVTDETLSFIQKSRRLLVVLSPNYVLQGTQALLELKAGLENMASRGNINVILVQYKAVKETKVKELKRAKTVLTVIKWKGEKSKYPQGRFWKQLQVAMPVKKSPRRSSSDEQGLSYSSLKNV

[2] = molecular target: T2, FcgammaRIIIa (V158) expressed on Jurkat effector cells (UniProt P08637 17-254, limits assumed); test: cell based ADCC reporter gene assay, Jurkat FcgammaRIIIa (V158) effector cells with CHO IL1R3 target cells
T2 construct: whole, on cells; also called FcγRIII; Fc receptor of the effector cells
Procedure: The anti-IL-1R3 antibody in IgG1-LALA and IgG4-P-FALA format was tested for any ADCC activity using a reporter gene assay (iLite ADCC Bioassay #BM5001, SVAR Life Sciences, Malmö). This assay uses reporter-gene-carrying effector cells (Jurkat cells expression FcgammaRIIIa (V158)) that are used in conjunction with target cells that express the specific antigen at constant high levels (i.e. CHO ILIR3 target cells). Binding of the antibody to the target cell and binding of the effector cell to the Fc receptor of the antibody results in expression of the firefly luciferase reporter gene in the effector cell. The promoter of the firefly luciferase in the effector cells includes binding sites for NfkB, AP1, NFAT, CRE and STAT and thus includes the five principal transcription factors of the FcγRIII signal transduction pathway. The effector cells further comprise Renilla luciferase for normalization purposes.

B1: anti-IL-1R3-IgG4-P-FALA (antibody)
heavy: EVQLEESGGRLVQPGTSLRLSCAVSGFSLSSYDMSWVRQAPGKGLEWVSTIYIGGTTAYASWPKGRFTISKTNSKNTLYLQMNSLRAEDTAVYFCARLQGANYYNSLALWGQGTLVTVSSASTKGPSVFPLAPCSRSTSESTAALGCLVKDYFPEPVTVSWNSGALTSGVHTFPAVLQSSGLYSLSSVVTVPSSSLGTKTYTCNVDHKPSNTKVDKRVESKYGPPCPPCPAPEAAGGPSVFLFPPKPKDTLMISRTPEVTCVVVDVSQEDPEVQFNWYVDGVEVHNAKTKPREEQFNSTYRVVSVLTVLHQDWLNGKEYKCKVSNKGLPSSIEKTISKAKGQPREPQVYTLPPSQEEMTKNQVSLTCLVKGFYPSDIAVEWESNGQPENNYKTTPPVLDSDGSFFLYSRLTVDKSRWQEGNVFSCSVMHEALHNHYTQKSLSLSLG
light: DVQMTQSPSSLSASVGDRVTITCQASQSIYSFLSWYQQKPGQAPKLLIYAASDLESGVPSRFSGSGSGTDFTLTISSLQPEDFATYYCQSNYIIDYGAFGQGTKVVIKRTVAAPSVFIFPPSDEQLKSGTASVVCLLNNFYPREAKVQWKVDNALQSGNSQESVTEQDSKDSTYSLSSTLTLSKADYEKHKVYACEVTHQGLSSPVTKSFNRGEC
notes: Humanized antibody, human IgG4 backbone with S228P, F234A, L235A (EU) in the Fc region; also called anti-IL-1R3 IgG4-P-FALA Ab; aIL-1R3-IgG4; copies: 2 + 2
[1]
  IL8 release_hIL1b & hIL33 & IL36g, rel IC50 in nM: 8.5 nM
  IL8 release_hIL1b & hIL36g, rel IC50 in nM: 2.38 nM
  IL8 release_hIL1 beta, rel IC50 in nM: 13.4 nM
  IL8 release_hIL33, rel IC50 in nM: 2.34 nM
  IL8 release_hIL36g, rel IC50 in nM: 0.45 nM
[2]
  binding result: no binding
